The results in this text go back to patent US5622932A (Eli Lilly and Company, priority 1995, dated 1997).

The target in test [1] is T1, IGF-1 receptor (Homo sapiens, UniProt P08069).
T1 construct: 30-50 μg of human placental membrane protein was incubated; from tissue; host or cells: human placental membranes
Put plainly: IGF-1 radioreceptor assay (displacement of [125I] ligand from human placental membranes). Type of test: binding. The note with it: relative to BCAD (IGF-1) = 100; human placental membrane, 24 hours at 4° C., from EC50 values. Here is the method: (§1) 67:194-197. Briefly, 30-50 μg of human placental membrane protein was incubated with approximately 10 femtomoles of [^125 I] ligand in a final volume of 500 μl of 100 mM HEPES, pH 7.8, 120 mM NaCl, 5 mM KCl, 1.2 mM MgSO4, 8 mM glucose and 0.25% BSA for 24 hours at 4° C. Membranes were collected on glass fiber filters pre-treated with 0.1% polyethyleneimine by using a cell harvester (Skatron, Lier, Norway). Binding data were analyzed by fitting displacement curves to a four parameter model employing Prefit/Allfit® software for the determination of EC50 values.

In test [2] the target is T2, insulin receptor (Homo sapiens, UniProt P06213).
T2 construct: 30-50 μg of human placental membrane protein was incubated; from tissue; host or cells: human placental membranes
Put plainly: Insulin radioreceptor assay (displacement of [125I] ligand from human placental membranes). Type of test: binding. The conditions noted are these: relative to b,a (insulin) = 100; human placental membrane, 24 hours at 4° C., from EC50 values. Here is the method:
as §1

proinsulin [bca (proinsulin)]: the “% IGF-1 POTENCY” value in test [1] is < 0.1%. As to IGF-1 [BCAD (IGF-1)], the “% INSULIN POTENCY” value in test [2] is listed as 1.2%.

Consider insulin [b,a (insulin)], for which the “% IGF-1 POTENCY” value in test [1] came to 0.37%.
